The chains are these.
T1: HCoV-229E spike antigens (bead panel) (HCoV-229E, UniProt P15423 16-1115)
T1 sequence: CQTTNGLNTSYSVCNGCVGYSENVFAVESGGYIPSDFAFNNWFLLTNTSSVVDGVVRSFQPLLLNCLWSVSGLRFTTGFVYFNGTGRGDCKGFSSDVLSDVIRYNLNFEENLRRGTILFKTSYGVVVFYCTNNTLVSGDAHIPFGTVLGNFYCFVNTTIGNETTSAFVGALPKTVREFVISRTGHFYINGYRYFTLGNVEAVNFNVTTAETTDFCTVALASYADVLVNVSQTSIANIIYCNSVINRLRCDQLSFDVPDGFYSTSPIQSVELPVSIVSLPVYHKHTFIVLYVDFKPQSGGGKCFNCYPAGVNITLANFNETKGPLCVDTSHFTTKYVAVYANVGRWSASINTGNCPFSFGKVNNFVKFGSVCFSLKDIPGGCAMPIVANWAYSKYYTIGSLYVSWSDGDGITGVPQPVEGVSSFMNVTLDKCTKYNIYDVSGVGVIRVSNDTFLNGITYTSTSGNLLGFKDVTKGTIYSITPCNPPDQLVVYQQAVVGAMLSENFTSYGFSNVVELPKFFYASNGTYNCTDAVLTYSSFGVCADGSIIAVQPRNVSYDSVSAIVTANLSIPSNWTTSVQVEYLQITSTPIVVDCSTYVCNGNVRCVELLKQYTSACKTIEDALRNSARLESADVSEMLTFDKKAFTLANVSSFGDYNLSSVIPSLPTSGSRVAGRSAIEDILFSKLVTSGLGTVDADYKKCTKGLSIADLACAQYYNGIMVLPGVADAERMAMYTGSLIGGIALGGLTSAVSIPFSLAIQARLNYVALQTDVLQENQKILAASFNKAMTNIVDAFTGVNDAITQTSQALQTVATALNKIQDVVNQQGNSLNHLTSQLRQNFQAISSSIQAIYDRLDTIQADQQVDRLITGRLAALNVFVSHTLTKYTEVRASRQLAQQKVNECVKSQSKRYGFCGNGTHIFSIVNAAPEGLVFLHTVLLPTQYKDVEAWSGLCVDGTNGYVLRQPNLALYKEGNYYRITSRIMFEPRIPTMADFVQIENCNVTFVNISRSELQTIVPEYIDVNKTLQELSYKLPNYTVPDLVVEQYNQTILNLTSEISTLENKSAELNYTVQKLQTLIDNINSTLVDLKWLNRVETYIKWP

T2: HCoV-HKU1 spike antigens (bead panel) (HCoV-HKU1, UniProt Q5MQD0 13-1300)
T2 sequence: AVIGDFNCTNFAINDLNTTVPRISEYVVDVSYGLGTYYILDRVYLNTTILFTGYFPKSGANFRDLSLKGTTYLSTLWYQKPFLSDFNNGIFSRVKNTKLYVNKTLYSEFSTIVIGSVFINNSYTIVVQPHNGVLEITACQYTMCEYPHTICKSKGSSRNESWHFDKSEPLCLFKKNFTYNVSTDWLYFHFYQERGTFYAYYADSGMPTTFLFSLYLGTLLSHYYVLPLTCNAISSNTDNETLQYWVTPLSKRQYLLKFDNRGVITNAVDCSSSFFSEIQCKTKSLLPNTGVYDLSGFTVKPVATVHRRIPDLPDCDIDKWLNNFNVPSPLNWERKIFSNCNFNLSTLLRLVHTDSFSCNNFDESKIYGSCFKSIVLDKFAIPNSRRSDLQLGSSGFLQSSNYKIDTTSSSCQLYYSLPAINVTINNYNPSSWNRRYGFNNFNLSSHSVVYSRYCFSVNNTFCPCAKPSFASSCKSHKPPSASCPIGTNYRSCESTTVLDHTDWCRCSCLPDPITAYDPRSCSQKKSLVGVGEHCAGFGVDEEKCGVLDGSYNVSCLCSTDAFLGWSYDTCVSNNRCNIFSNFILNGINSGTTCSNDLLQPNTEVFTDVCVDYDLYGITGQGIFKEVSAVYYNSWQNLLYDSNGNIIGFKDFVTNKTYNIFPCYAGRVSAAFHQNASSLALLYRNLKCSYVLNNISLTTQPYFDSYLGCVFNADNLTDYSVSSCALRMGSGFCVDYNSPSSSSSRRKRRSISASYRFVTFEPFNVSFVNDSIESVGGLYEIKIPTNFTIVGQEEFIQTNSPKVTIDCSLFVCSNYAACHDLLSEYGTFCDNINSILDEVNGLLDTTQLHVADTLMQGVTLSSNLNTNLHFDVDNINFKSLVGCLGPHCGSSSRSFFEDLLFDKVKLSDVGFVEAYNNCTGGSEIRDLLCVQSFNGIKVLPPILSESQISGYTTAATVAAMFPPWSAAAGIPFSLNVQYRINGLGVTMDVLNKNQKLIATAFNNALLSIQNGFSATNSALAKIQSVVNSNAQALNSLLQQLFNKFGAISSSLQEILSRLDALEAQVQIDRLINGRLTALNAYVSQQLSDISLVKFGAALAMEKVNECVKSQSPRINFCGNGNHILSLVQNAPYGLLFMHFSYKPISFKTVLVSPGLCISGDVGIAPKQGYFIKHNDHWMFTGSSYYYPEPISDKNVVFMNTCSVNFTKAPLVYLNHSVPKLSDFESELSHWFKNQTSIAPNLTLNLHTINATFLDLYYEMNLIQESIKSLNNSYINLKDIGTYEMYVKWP

B1: COV_3077 (antibody, V domains shown)
VH: QVQLQESGPGLVKPSETLSLTCAVSGYSISSGYYWGWIRQPPGKGLEWIGSIYHSGSTYYNPSLKSRVTISVDTSKNQFSLKLSSVTAADTAVYYCARALYDAFDIWGQGTMVTVSS
VL: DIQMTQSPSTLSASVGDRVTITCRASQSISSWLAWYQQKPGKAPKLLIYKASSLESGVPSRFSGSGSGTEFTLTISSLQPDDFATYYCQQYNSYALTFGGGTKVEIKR
notes: human IgG1
B2: COV_2039 (antibody, V domains shown)
VH: QVQLVQSGAEVKKPGASVKVSCKVSGYMLIELSMHWVRQAPGKGLEWMGGFDPEDAETIYAQEFQGRVTMTEDTSTDTAYMELSSLRSEDTAVYYCTTGPAVTNRPADYWGPGTLVTVSS
VL: QSVLTQPPSVSGAPGQRVTISCTGSSSNIGASYDVHWYQQLPGTAPKLLIYANSNRPSGVPDRFSGSKSGTSASLAITGLQAEDEADYYCQSYDSSLSYSVVFGGGTKLTVL
notes: human IgG1
B3: COV_2028 (antibody, V domains shown)
VH: QVQLQESGPGLVKPSGTLSLTCVVSGGSISSSNWWSWVRQPPGKGLEWIGEIYHSGSTNYNPSLKSRVTISVDKSKNQFSLRLTSVTAADTAVYYCARGWNYDYWGQGTLVTVSS
VL: QSALTQPASVSGSPGQSITIACTGTSSDVGSYNLVSWYQQHPGKAPKLMIYEVSKRPSGLSNRFSGSKSGNTASLTISGLQAEDEADYYCYSYAGSSTWVFGGGTKLTVL
notes: human IgG1
B4: COV_2037 (antibody, V domains shown)
VH: QVQLVQSGAEVKKPGASVKVSCKVSGYTLTELSMHWVRQAPGKGLEWMGGFDPEDAETIYAQKFQGRVTMTEDTSTDTAYMELSSLRSEDTAVYYCATAGAITGTPTNYSYYYGMDFWGQGTTVTVSS
VL: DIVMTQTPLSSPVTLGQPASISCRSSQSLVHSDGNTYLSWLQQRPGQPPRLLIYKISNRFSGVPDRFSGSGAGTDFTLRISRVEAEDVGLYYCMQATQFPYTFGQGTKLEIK
notes: human IgG1
B5: COV_2077 (antibody, V domains shown)
VH: QVQLQESGPGLVKPSETLSLTCTVSGGSISSYSWSWIRQPPGKGLEWIGYIYYSGSTNYNPSLKSRVTISVDTSKNQFSLKLSSVTAADTAVYYCARESMGRYSLELRQPESAFDYWGRGTLVTVSS
VL: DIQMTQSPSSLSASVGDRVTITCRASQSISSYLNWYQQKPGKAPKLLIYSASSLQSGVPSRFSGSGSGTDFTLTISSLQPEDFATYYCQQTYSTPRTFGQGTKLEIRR
notes: human IgG1
B6: COV_2054 (antibody, V domains shown)
VH: EVQLVESGGGVLQPGRSLRLSCAASGFTFNNYALHWVRQAPGKGLEWVAVISYDGSSKYYADSVRGRLTISRDNSRNTLYLQMNSLRPEDTAIYYCARDGDGLWLGESFYFDDWGQGTLVTVSS
VL: DIQMTQSPSTLSASVGDRVIITCRASQSISSWLAWYQQKPGKAPKLLIYEASTLQSGVPSRFSGSGSGTEFTLTISSLQPDDSATYYCQQYNSYPVHFSQGTKLEIK
notes: human IgG1
B7: COV_2143 (antibody, V domains shown)
VH: EVQLVESGGGVVQPGRSLRLSCAASGFTFNSFAMLWVRQAPGKGLEWVALFSYDGSNKYYADSVKGRFTISRDNSKNTLYLQMNNLRAVDTAVYYCARASPYDINGYYLHRIAFDIWGQGTMVTVSS
VL: QSVLMQPPSVSGAPGQRVTISCTGSSSNIGAGYDVHWYQQLPGTAPKLLMYGNSNRPSGVPDRFSGSKSGTSASLAITGLQAEDEADYYCQSYDSGLSGWVFGGGTKLTVLG
notes: human IgG1
B8: COV_2172 (SEQ ID NO:872/877) (antibody, V domains shown)
VH: EVQLVESGGGVVQPGRSLRLSCAPSGFTFSTYAMHWVRQAPGKGLEWVAVISYDGSIKYYADSVKGRFTISRDNTMNTVFLQMNSLRAEDTAVYFCAKGGERWELFTSFDYWGQGTQVTVSS
VL: QSALTQPRSVSGSPGQSVTISCTGTSSDVGGYNYVSWYQQHPGKAPKLMIYDVSKRPSGVPDRFSGSKSGNTASLTISGLQAEDEADYYCCSYAGSYTFVFGGGTKLTVLG
B9: COV_2025 (antibody, V domains shown)
VH: QVHLVQSGAEVKKPGASVKVSCKVSGYTLVELSVHWVRQAPAKGLEWIGGFDPEDGETIYAQKFQGRVTMTEDTSTDTAYMELTNLRSEDTAVYYCVTSQPFVSPNWFDPWGQGTLVTVSS
VL: QSALTQPASVSGSPGQSITISCTGTSRDVGAYNYVSWYQQHPGKAPKLMIYEVTTRPSGVSNRFSGSKSGNTASLTISGLQAEDEADYYCSSYTGSRTLVFGTGTKVTVL
notes: human IgG1
B10: COV_2093 (antibody, V domains shown)
VH: EVQLVESGGGLVQPGGSLRLSCAASGFMFNRFWMSWVRQAPGKGLEWVTNIKQDGSEKNYVDSVKGRFTISRDNAKNSLYLQMNSLRAEDTAVYYCARDGLYYDFRSPSPFYGMDVWGQGTTVTVSS
VL: DIQMTQSPSSLSASVGDRVTITCRASQSISSYLNWYQHKSGKAPKLLIYAASRLQSGVPSRFSGSGSGTDFTLTIVSLQPEDLATYYCQQSYSTPRTFGGGTKVEIKR
notes: human IgG1
B11: COV_2014 (antibody, V domains shown)
VH: QVQLVQSGAEVKKPGASVKVSCKVSGYTLTELSMHWVRQAPGKGLEWMGGFDPEDGETIYAQKFQGRVTMTEDTSTDTAYMELSSLRSEDTAVYYCATGKINYYDSSGYYGTFDYWGQGTLVTVSS
VL: AIQLTQSPSSLSASVGDRVTITCRASQGISSYLAWYQQKPGKAPKLLIYAASTLQSGVPSRFSGSGSGTDFTLTISSLQPEDFATYYCQQLNSYHLTFGQGTRLEIK
notes: human IgG1
B12: COV_2027 (antibody, V domains shown)
VH: EVQLVESGGGLIQPGGSLRLSCAASGFSVSTNYMSWVRQAPGKGLEWVSIIYSGGGTYYADSVKGRFTISRDTSENTLYLQMNSLRAEDTAVYYCASFLVGATGQPWYWGQGTLVTVSS
VL: not shown
notes: human IgG1
B13: COV_2174 (antibody, V domains shown)
VH: EVQLAESGGGLVKPGGSLRLSCAASGFTFSDYYMSWIRQAPGKGLEWVSYISSSGSTIYYADSVKGRFTISRDNAKNSLYLQMNSLRAEDTAVYYCARDWSVVVVPAAPAVDVWGQGTTVTVSS
VL: DIQMTQSPSSLSASVGDRVTITCRASQGISNYLAWFQQKPGKAPKSLIYAASSLQSGVPSKFSGSGSGTDFTLTISSLQPEDFATYYCQQYNSYPLTFGGGTKVEIKR
notes: human IgG1

The first test addresses T1, HCoV-229E spike antigens (bead panel). The test is described as follows: multiplex bead assay.
On to B1, for which the binding result is “no binding”.
On the same count and under the same terms, the result for B2 reads “no binding”; that for B3, “no binding”.
As for B4, the binding result was “no binding”.
Turning to B5, the binding result was “no binding”.
The same measure, in the same setting: the result for B6 reads “no binding”; that for B7, “no binding”.
In the case of B8, the binding result is “no binding”.
Still for that read-out and setting: for B9 the value was “no binding”.
Same read-out and setting: the result for B10 reads “no binding”; that for B11, “no binding”; that for B12, “no binding”.
Still for that read-out and setting: for B13 the value was “no binding”.

A further test has as its target T2, HCoV-HKU1 spike antigens (bead panel). The test is described as follows: multiplex bead assay.
As for B1, the binding result is given as “no binding”.
Same read-out and setting: the result for B2 reads “no binding”; that for B3, “no binding”; that for B4, “no binding”.
Same read-out and setting: the result for B5 reads “no binding”; that for B6, “no binding”.
On the same count and under the same terms, for B7 the value was “no binding”.
B8: the binding result is recorded as “no binding”.
On to B9, for which the binding result is on record as “no binding”.
B10: the binding result is given as “no binding”.
Still for that read-out and setting: the result for B11 reads “no binding”; that for B12, “no binding”; that for B13, “no binding”.

Values taken from patent publication US20240101645A1 (HENRY M JACKSON FOUNDATION FOR THE ADVANCEMENT OF MILITARY …, published 2024).
